The text below walks through data of US7727739B2, “Methods for measuring enzyme activity” (GE Healthcare UK Limited, priority 2002, dated 2010).

Non-standard residues stand in square brackets, D forms with d. Residues, ends and D or L forms follow the SMILES beside them. No end group written: not given here. *: point of attachment. X1 = 6‑(9-oxo-9H-acridin-10-yl)hexanoyl, O=C(CCCCCn1c2ccccc2c(=O)c2ccccc21)*; Sta = CC(C)C[C@H](N)[C@@H](O)CC(=O)O; Phe(NO2) = nitro-phenylalanine; Isovaleryl = CC(C)CC(=O)*; Nva = CCC[C@H](N)C(=O)O

Data set [1] is described as follows: Fluorescence lifetime of labelled substrate in protease assay buffers. The data set is classed as physicochemical. As for the experimental part:
A no enzyme control (NEC) having 10 μl of buffer in place of enzyme was used. […] Since the lifetimes of substrate (10.3 ns) and product (13.8 ns) are different it was possible to monitor the appearance of product and disappearance of the substrate, the results are shown in FIG. 2.
A no enzyme control (NEC) having 10 μl of buffer in place of enzyme was used. […] Since the lifetimes of the substrate (11.5 ns) and product (14.5 ns) in Tris buffer are different it was possible to monitor the appearance of product and disappearance of the substrate, the results are shown in FIG. 3.
A no enzyme control (NEC) having 100 μl of buffer in place of enzyme was included.

Data set [2] in a line: Fluorescence lifetimes stated for labels and typical substrates. The data set is classed as physicochemical. Conditions: for lifetime of typical substrate: intact substrate, products 14 nano seconds; for lifetime of fluorescent label: free label.
A short description of data set [3]: Fluorescence lifetime of labelled peptides by time-correlated single photon counting. The format is physicochemical. Conditions: 100 nM in TNC-T buffer pH7.5; excited at 405 nm, detection at 450 nm. Here is the method: The lifetime of this solution was determined (2 ml volume in a cuvette) by a time-correlated single photon counting technique (Edinburgh Analytical Instruments FL900CDT spectrometer). Samples were excited at 405 nm using a laser diode, detection being at 450 nm.
The labelled peptide (6-(9-oxo-9H-acridin-10-yl) hexanoic acid- RPKPVENvaWRK) (SEQ ID NO:3) was also diluted to 100 nM in TNC-T buffer and the lifetime was similarly recorded.

For data set [4], the target named is pepsin (Homo sapiens, UniProt P0DJD7). The experiment in a line: Inhibition of pepsin activity, fluorescence lifetime protease assay. The format is biochemical. Conditions: pepsin 0.5 ng; 0.1M citrate buffer pH3.6; FIG. 8; read-out: apparent IC50, pepsin digestion of the peptide substrate.
Experimental: After incubation at ambient temperature, the fluorescence intensity and lifetime were recorded. Deconvolution using a non-linear least-squares analysis algorithm gave the fluorescence lifetimes.
Data set [5] deals with T1, 6-(9-oxo-9H-acridin-10-yl) hexanoyl-CHLDIIW.
T1 sequence: CHLDIIW

Data set [6] relates to T2, 6-(9-oxo-9H-acridin-10-yl) hexanoic acid-Arg-Pro-Lys-Pro-Val-Glu-Nva-Trp-Arg-Lys-NH2.
T2 sequence: RPKPVEXWRK

In data set [7] the target is bovine kidney cathepsin D (bovine) (UniProt P80209). The experiment in a line: cell-based or functional assay.
In data set [8] the target is pepsin. Put plainly: cell-based or functional assay.
Data set [9] concerns T3, 6-(9-oxo-9H-acridin-10-yl) hexanoyl-Ala-Ala-Phe-Phe-Ala-Ala-Tyr [AAFFAAY].
T3 sequence: AAFFAAY

Data set [10] addresses T4, 6-(9-oxo-9H-acridin-10-yl) hexanoic acid-AAFFAAF-nitro (not fully specified).
T4 chain: AAFFAAF

What is called IC50 is the concentration needed to halve the response being measured.

Chain of pepsin (Homo sapiens, UniProt P0DJD7) (P0DJD7 63-388): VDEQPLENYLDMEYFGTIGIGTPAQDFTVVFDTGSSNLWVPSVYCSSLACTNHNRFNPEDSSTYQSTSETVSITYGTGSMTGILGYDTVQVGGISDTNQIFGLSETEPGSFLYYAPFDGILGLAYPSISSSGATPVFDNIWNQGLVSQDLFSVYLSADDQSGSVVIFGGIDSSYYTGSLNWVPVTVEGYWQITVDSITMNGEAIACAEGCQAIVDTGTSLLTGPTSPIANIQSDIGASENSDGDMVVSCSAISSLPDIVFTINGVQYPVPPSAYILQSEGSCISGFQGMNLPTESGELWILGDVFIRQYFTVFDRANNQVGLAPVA
Chain of bovine kidney cathepsin D (bovine) (P80209 45-390 limits assumed): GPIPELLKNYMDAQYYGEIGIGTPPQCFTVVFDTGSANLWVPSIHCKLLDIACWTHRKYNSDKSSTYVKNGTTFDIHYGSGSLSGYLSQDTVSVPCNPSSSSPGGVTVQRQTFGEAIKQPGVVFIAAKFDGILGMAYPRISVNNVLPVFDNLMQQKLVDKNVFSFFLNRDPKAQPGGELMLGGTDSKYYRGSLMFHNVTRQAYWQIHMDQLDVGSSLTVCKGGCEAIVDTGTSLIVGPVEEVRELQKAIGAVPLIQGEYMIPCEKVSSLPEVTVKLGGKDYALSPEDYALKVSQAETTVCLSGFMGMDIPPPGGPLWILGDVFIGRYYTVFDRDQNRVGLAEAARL

In the case of “6-(9-oxo-9H-acridin-10-yl) hexanoic acid- AAFFAAF-nitro (X1-AAFFAA[Phe(NO2)]; not fully specified) [acridone-labelled nitro-phenylalanine peptide, thermolysin substrate]”, the “fluorescence lifetime of substrate” value in data set [1] (PBS buffer, pH7, stretched exponential analysis) turned out to be 2.5 ns.
Consider “6-(9-oxo-9H-acridin-10-yl) hexanoic acid- Arg-Pro-Lys-Pro-Val-Glu-Nva-Trp-Arg-Lys-NH2 (X1-RPKPVE[Nva]WRK-NH2; SMILES CCC[C@H](NC(=O)[C@H](CCC(=O)O)NC(=O)[C@@H](NC(=O)[C@@H]1CCCN1C(=O)[C@H](CCCCN)NC(=O)[C@@H]1CCCN1C(=O)[C@H](CCCNC(=N)N)NC(=O)CCCCCn1c2ccccc2c(=O)c2ccccc21)C(C)C)C(=O)N[C@@H](Cc1c[nH]c2ccccc12)C(=O)N[C@@H](CCCNC(=N)N)C(=O)N[C@@H](CCCCN)C(N)=O) [acridone-labelled MMP-3 substrate peptide]”, for which the “lifetime of typical substrate” value in data set [2] stood at 10 nano seconds. Further, the “Lifetime (ns)” value in data set [3] came to 12.6 ns. Also, the “fluorescence lifetime of substrate” value in data set [1] (50 mM Tris buffer pH 7.5, MMP-3 assay, FIG. 6) is reported as 10 ns.
Turning to “6-(9-oxo-9H-acridin-10-yl) hexanoic acid- RPKPVE (Arg-Pro-Lys-Pro-Val-Glu) (X1-RPKPVE) [acridone-labelled peptide without tryptophan]”, in [3], the “Lifetime (ns)” value was 13.9 ns.
As to “6-(9-oxo-9H-acridin-10-yl) hexanoyl- CHLDIIW (X1-CHLDIIW) [acridone-labelled Asp-n protease substrate]”, the “lifetime of typical substrate” value in data set [2] is reported as 10 nano seconds.
Take “6-(9-oxo-9H-acridin-10-yl) hexanoyl-Ala-Ala-Phe-Phe-Ala-Ala-Tyr (X1-AAFFAAY) [acridone-labelled protease substrate peptide]”: in data set [2], the “lifetime of typical substrate” value is given as 10 nano seconds. Moreover, the “fluorescence lifetime of substrate” value in [1] (50 mM Tris buffer, pH7.8, 10 mM CaCl2) was determined as 11.5 ns; in [1] (0.1M citrate buffer, pH3.6, 0.005% Tween-20), 10.3 ns.
Turning to `CC(=O)Nc1ccc2c(c1)c(=O)c1ccccc1n2CCCCCC(=O)O` [6-(2-(acetamido)-9-oxo-9H-acridin-10-yl) hexanoic acid], the “lifetime of fluorescent label” value in [2] was determined as 17 ns.
`O=C(O)CCCCCn1c2ccccc2c(=O)c2cc(Br)ccc21` [6-(2-bromo-9-oxo-9H-acridin-10-yl) hexanoic acid]: the “lifetime of fluorescent label” value in [2] came to 8 ns.
As to `O=C(O)CCCCCNC(=O)c1cccc2c(=O)c3ccccc3[nH]c12` [6-(9-oxo-9H-acridin-4-carboxamido) hexanoic acid], the “lifetime of fluorescent label” value in data set [2] was found to be 4 ns.
Regarding `O=C(O)CCCCCn1c2ccccc2c(=O)c2ccccc21` [6-(9-oxo-9H-acridin-10-yl) hexanoic acid], in [2], the “lifetime of fluorescent label” value amounted to 14 ns.
Turning to `CC(C)CC(=O)N[C@H](C(=O)N[C@H](C(=O)N[C@@H](CC(C)C)[C@@H](O)CC(=O)N[C@@H](C)C(=O)N[C@@H](CC(C)C)[C@@H](O)CC(=O)O)C(C)C)C(C)C` [Pepstatin A] (Isovaleryl-VV[Sta]A[Sta]-OH), the IC50 at pepsin [4] amounted to 880 pM.
Asp-n: the “protease digestion of labelled substrate (fluorescence intensity and lifetime)” value in data set [5] is given as “illustrates the digestion of 6-(9-oxo-9H-acridin-10-yl) hexanoyl -CHLDIIW (SEQ ID NO:2) with Asp-n”.
In the case of Matrix Metalloproteinase 3, the “protease digestion of labelled substrate (fluorescence lifetime)” value (shortened to “protease digestion … (fluorescence lifetime)”) in data set [6] was “enzyme-dependant appearance of the product (14 ns lifetime species) and disappearance of the substrate (10 ns lifetime species)”.
For the molecule Pepstatin A (peptide), the cathepsin D enzyme activity at 12 nM pepstatin A against no inhibitor in [7] stood at 5 fold. In addition, the inhibition of pepsin digestion of the labelled peptide substrate (fluorescence lifetime), apparent IC50 with pepsin [8] was found to be 880 pM.
Consider chymotrypsin, for which the “protease digestion … (fluorescence lifetime)” value in data set [9] was “it was possible to monitor the appearance of product and disappearance of the substrate”.
For the molecule pepsin, the “protease digestion … (fluorescence lifetime)” value in [9] is “it was possible to monitor the appearance of product and disappearance of the substrate”.

B1: thermolysin (protein)
chain: ITGTSTVGVGRGVLGDQKNINTTYSTYYYLQDNTRGNGIFTYDAKYRTTLPGSLWADADNQFFASYDAPAVDAHYYAGVTYDYYKNVHNRLSYDGNNAAIRSSVHYSQGYNNAFWNGSQMVYGDGDGQTFIPLSGGIDVVAHELTHAVTDYTAGLIYQNESGAINEAISDIFGTLVEFYANKNPDWEIGEDVYTPGISGDSLRSMSDPAKYGDPDHYSKRYTGTQDNGGVHINSGIINKAAYLISQGGTHYGVSVVGIGRDKLGKIFYRALTQYLTPTSNFSQLRAAAVQSATDLYGSTSQEVASVKQAFDAVGVK
On to B1, for which the “protease digestion … (fluorescence lifetime)” value in [10] is “it was possible to monitor the appearance of product and disappearance of the substrate”.
